# According to the nanobody polyreactivity screen of Harvey et al. (2022):
# Test: yeast display, Sf9 membrane polyspecificity reagent, FACS + sequencing; frameworks hold sequencing errors
# Procedure, shortened: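 Sorting gates, low and high (top ~1%), were placed on anti-HA fluorescence to track expression and on streptavidin fluorescence to track reagent binding. A clone's polyreactivity label is taken from the gate it came out of. The reagent was 10% biotinylated, detergent-solubilized Sf9 membrane, applied for 1 hour at 4 °C to galactose-induced yeast display cells.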
row,Sequence,polyreactivity (PSR sort gate)
1,QVQLVESRGGLVQAGGSLRLSCAASGFIFGYYALGWYRQAPGKEWELVAAITNGGRTYYADSVKGRFTISRDNAKNTVYLQMISLKPEDTAVYYCAARPSWWSALFDSWGQGTQVTVSS,low polyreactivity
2,QVQLVESGGGLVQAGGSLRLSCAASGITFDAHAMGWYRQAPGKERELVARISSGGSTNYADSVKGRFTISRDNAKNTVYLQMNSLKPEDTAVYYCANSYLYGFDYWGQGTQVTVSS,low polyreactivity
3,QVQLVESGGGLVQAGGSLRLSCAASGIIFYGYAMGWYRQAPAKERELVAAITYSGGSTYYADSVKGRFTISRDNAKNTVYLQMNSLKPEDTAVYYCDAYDAYSPYLALYDYWVQGTQVTVSS,low polyreactivity
4,QVQLVESGGGLVQAGGSLRLSCAASGRTFAGYAMGWYRQAPGKERELVATISRNGGSTYYADSVKGRFTISRDNAKNTVYLQMNSLKPEDTAVYYCAADRRGVVRFSRYRGIYDYWGQGTQVTVSS,high polyreactivity
5,QVQLVESVGGLVQAGGSLRLSLAASGFTFWYYAMGWYRQAPGKERELVAVINTSGGSTYADSVKGRFTISRDNAKNTVYLQMNSLKPEDTAVYYCAAEGISTYPYDYCGQGTQVTVSS,low polyreactivity
6,QVQLVESGGGLVQAGGSLRLSCAASGSIFKYYTMGWYRQAPGKERELVAAISWRGGSTYYADSVKGRFTISRDNAKNTVYLQMNSLKPEDTAVYYCAAKSYYNYYYWGQGTQVTVSS,high polyreactivity
7,QVQLVESGGGLVQAGGSLRISCAASGRIFDNYAMGWNRQAPGKERELVAAISVSGDSTYYADSVKGRFTISRDNAKNTVYLQMNSLKPEDTAVYYCAVDPDSYWYLTWADEMYYWGQGTQVTVSS,high polyreactivity
8,QVQLVESGGGLVQAGGSLRLSCAASGIIFVVYAMGWYRQAPGKERELVAAISFRGGSTYYADSVKGRFTISRDNAKNTVYLQMNSLKPEDTAVYYCAARAFRHDGYDYWGQGTQVTVSS,low polyreactivity
9,QVQLVESGGGLVQAGGSLRLSCAASGFIFNINTMGWYRQAPGKERELVAAISGSGDSTYYADSVKGRFTISRDNAKNTVYLQMNSLKPEDTAVYYCNAGPWWYLHEYDYWGQGTQVTVSS,low polyreactivity
10,QVQLVESGGGLVQAGGSLRLSCAASGRTFPGNAMGWYRQAPGKERELVAAISWSGTRTYYADSVKGRFTISRDNAKNTVYLQMNSLKPEDTAVYYCNRRYWSFFPYDYWGQGTQVTVSS,high polyreactivity
11,QVQLVESGGGLVQAGGSLRLSCAASGSTFWSYTMGWYRQAPGKERELVARITGRGGSTYYADSVKGRFTISRDNAKNTVYLLMNSLKPEDTAVYYCAAGGGRYGFYRFDYWGQGTQVTVSS,low polyreactivity
12,QVQLVESGGGLVQAGGSLRLSCAASGFTFGTYAMGWYRQAPGKERELVAAINGNGGSTYYADSVKGRFTISRDNAKNTVYLQMNSLKPEDTAVYYCAAARRSGSTRRDYWGQGTQVTVSS,high polyreactivity
13,QVQLVESGGGLVQAGGSLRLSCAASGRTFGSYAMGWNRPATRLERELVAAISDGGSTNYADSVKGRFTISRDNAKITVYLQMNSLTPEDTAVYYCAAEIFFAVFRFYYSGQGTQVTVSS,low polyreactivity
14,QVQLVESGGGLVQAGGSLRLSCAASGGTFRPYAMGWYRQAPGKERELVATIRSSGGRTYYADSVKGRFTISRDNAKNTVYLQMISLKPEDTAVYSCAADRTRGYGNDYWGQGTQVTVSS,high polyreactivity
15,QVQLVESGGGLVQAGGSLRLSCAASGIIFGYYAMGWYRQAPGKERELVAAISRSGGRTYYADSVKGRFTISRDNAKNTVYLQMNSLKPEDTAVYYCATVTNSKRGFDYWGQGTQVTVLS,high polyreactivity
16,QVQLVESGIGLVQAGGSLRLSCAASGRTLGGNAMGWYRQAPGKERELVAAINWSGGITYYADSVKGRFTISRDNAKNTVYLQMNSLKPEDTAVYYCARYKYNRQTRVEYGYWGQGTLVTVSS,high polyreactivity

row,Sequence,polyreactivity (PSR sort gate)
1,QVQLVESGGGLVQAGGSLRLSCAASGSTFWGYTMGWYRPAPGKERELVAAITGSGGSTNYADSVKGRFTISRDNAKNTVYLQMNSLKPEDTAVYYCATQGITPSNSYDYWGQGTQVTVSS,low polyreactivity
2,QDQLVESGGGLVQAGGSLRLSCAASGSIFFLYAMGWYRQAPGKERELVAAIRLSGGSTYYADSVKGRFTISRDNAKNTVYLQMNSLKPEDTAVYYCAAESAAASAVYSVEYDYWGQGTQVTVSS,low polyreactivity
3,QVQLVESGGGLVQAGGSLRLSCAASGYIFPYYPMGWYRQAPGKQRELVAAISRSGGGTYYADSVKGRFTISRDIANNTVYLQMNSLKPEDTALYYCNRRSGHVHEYDYWGQGTQVTVSS,low polyreactivity
4,QVQLVESGGGLVQAGGSLRLSCAASGFIILIYAMGWYRQAPGKERELVATIRYSGGRTYYADSVKGRFTISRDNAKNTVFLQMNSLKPEDTAVDYCAADGYPTLYDYWGQGTQVTVSS,high polyreactivity
5,QVQLVESGGGLVQAGGSLRLSCAATGRTLGGNAMGWYRLAPGKEREFVARISTRGVRTYYAYSVKGRFTISRDNAKNTVDLQLNSLNPEDTAVYYCAKQVSYGHIGSYPDRDSWGQGTQVTVSS,low polyreactivity
6,QVQLVESGGGLVQAGGSLRLSCAASGFTLRGNAMGWYRPAPGKERELVAAISTGGSTYYADSVKGRFTISRDNAKNTVYLQMNSLKPEDTAVYYCARRGWFHYRYYYWGQGTQATVSS,high polyreactivity
7,QVQLVESGGGLVQAGGSLRLSCAASGLIFYRNAMGWYRQAPGKERELVAAIRFSTGSTYYADSVKGRFTISRDNAKNSVYLQMNSLKPEDSAVYCCAAALPGYGDYYYWGQGTQVTVSS,high polyreactivity
8,QVQLVESGGGLVQAGGSLRLSCAASGSTLGGYAMGWYRQAPGKERELVASISWDDVRTYYADSVKGRFTISRDNAKNTVYLQMNSLKPEDTAVYYCAKGDIEYFWSRIYGYWGQGTQVTVSS,low polyreactivity
9,QVQLVESGGGLVQAGGSLRLSCAASGKTFDPNAMGWYIPAPGKEREFVAAIATIGSSTYYADSVKGRFTMSRDNAKNTVYLPMTCLKPEDSAVYYCAKGIYVVYGIDDYWGQGTQVTVSS,low polyreactivity
10,QVQLVESGGGLVQAGGSLRLSCAASGFTFTTNAMGWYRQAPGKERELVAAISKRGTRTYYADSVKGRFTISRDNAKNTVYLQMNSLKPEDTAVYYCAAASVAGDKFDYWGQGSQVTVSS,high polyreactivity
11,QVQLVESGGGLVQAGGSLRLSCAASGRTFSYYAMGWYRQAHGKERELVAAITSSGGRTTYADSVKGRFTISRDNAKNTVYLQMNSLKPEDTAVYYCNVVRWTLKYGYWGQGTQVTVSS,high polyreactivity
12,QVQLEESGGGLVQAGGSLRLSCAASGITFSGNAMGWYRQAPGKERELVATISQSGGRTYYADSVKGRFTISRDNAKNTVYLQMNSLKPEDTAVYYCARRRLRYTDRGYYYWGQGTQVTVSS,high polyreactivity
13,QVQLVESGGGLVQAGGSLRLSCAASGSTFSSNTMGWYRQAPGKERELVAAITTGGDTYYADSVKGRFTISRDNAKNTVYLQMNSLKPEDTAVYYCAATPTYWYLWSPYDYWGQGTQVTVSS,low polyreactivity
14,QVQLVESGGGLVQAGGSLRLSCAASGFIFGNYAMGWYRQAPGKERELVATITRRGGRTYYADSVKGRFTISRDNAKNTVYLQMNSLKPEDSAVYYCNARPSRWAREGYWGQGTQVTVSS,high polyreactivity
15,QVQLVESGGGLVQAGGSLRLSCAASGIIFGVYAMGWYRQAPGKERELVADISSGDSTNYADSVKGRFTISRANAKNTVYLQMNSLKPEDTAVYYCAAEFGRMYWRYGYWGQGTQVTVSS,low polyreactivity
16,QVQLEESVGGLVQAGCSLRLSCAASGGIFWVYAMGWYRQAPGKERELVAAISNSDTSTSYADSVKGRFTISRDNAKNTVYLQMNSLKPEDTAVYYCNADSPSLSGDYWGQGTQVTVSS,low polyreactivity
